# Experimental data published in PMC9009374.
# Target: Venus-tagged carboxy-tail segment of CaV1.2 (UniProt P15381)
# Assay: FRET or BRET
# Sequence of UniProt P15381 (P15381 1525-2171): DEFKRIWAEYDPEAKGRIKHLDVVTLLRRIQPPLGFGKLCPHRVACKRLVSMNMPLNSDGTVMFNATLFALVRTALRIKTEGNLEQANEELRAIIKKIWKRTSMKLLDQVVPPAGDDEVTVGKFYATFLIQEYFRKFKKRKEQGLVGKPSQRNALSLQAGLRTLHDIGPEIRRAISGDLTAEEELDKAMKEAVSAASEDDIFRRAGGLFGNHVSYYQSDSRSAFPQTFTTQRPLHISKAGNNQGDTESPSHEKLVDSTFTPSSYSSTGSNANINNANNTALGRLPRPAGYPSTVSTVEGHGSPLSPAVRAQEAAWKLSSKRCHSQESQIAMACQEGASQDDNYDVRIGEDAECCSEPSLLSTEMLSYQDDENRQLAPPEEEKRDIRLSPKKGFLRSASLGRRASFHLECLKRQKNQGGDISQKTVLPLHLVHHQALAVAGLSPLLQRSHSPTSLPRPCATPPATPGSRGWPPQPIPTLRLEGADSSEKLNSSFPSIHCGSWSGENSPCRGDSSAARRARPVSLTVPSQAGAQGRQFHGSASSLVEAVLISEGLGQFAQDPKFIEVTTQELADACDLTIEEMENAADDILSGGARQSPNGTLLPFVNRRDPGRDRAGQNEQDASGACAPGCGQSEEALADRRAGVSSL
substance,measurement,value
Cerulean-tagged calmodulin (CaM) (from UniProt P0DP23 1-149) (natural protein),stoichiometry N,1
